Laboratory results as given in the domain aggregation screens of Martell et al. (2025).

Assay: soluble fraction after stress (log2 fold change); higher = more stays soluble; pooled small domains, quantitative proteomics
Details: stress: pH 4
In short: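 Aggregation propensity is estimated from the fold change in each domain's soluble amount after acid stress. Pooled small-domain libraries were stressed at pH 4, and higher log2 values mean more stayed soluble.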

Sequence	soluble fraction (log2)
HMSGKMTVPNVVGKTETEAKSALSAKGFTNVRTETVDSTEAAGTVVKQSLDADSVQDPKTEIVLSVSNG	≥ 0.43
HMSGKWKIRILWYIAEYEVQRFGELRRRLGDITQSTLTEQLRELEQDGFVSRYVYQEVPSKVEYSLTE	-0.0562
HMSGKWSILILHALEQGPKRFNVLHRELSGITQATLTKQLRQLEEDGIILRKAYPQIPPKVEYQLTEIG	0.112
HMSGNPLDTYYSKWSAEIKKGSPNAVISKEGDKYYVSIPGENRMAIIYENPHLIRMVNATRNIHVE	0.0911
HMSGPSDRDLFDEALALLSGSGREPDYHEARIRLGTLVEQFPESKWAEGAKALLSMLDRVSALQV	-0.673
HMSGPVITEERNIANALISGLANMKETPTREQVERKAQQIAELFGYTGDLRNIITEAMISVDT	-0.137
HMSGRPPTYTAEERSAVIAAALSRPADLGLPFASWTLDRLVAYLGEKGIGMKRSRMSEVLLAEGLKW	-0.0116
HMSGSGYAYVDKYGYSHVVKDYDTAKNYASDGNVYNYSGSHKGGYAYDADNYRVPLDLPGSKPYG	-0.183
HMSGSIIQQAENLERQFGDTREAILGTLSDPKMSEEILETLMERYNKQHGTNWDKNTWAEEWAKANK	-0.355
HMSGSILVQVSATDLNIRKGPGTNYGTTGKYTGKGTFTIVETRSGQGSNAGWGKLKSGAGWISLDYAKR	-0.0233
HMSGTESMIEGRGEARTAIDGEGKVFFQGEYWTAQSDQFIPQGAKVRIKKVEGLNLIVEEIK	-0.796
HMSGTYIVTVQANTLDIYKSMTSNDTIGKANKGDVFQILEDMGGGYAKVSYNDVEGYISIKDGDTSIDEM	-1.29
HMSGVIVPDIYNKTLAEAVASLEGEGFSTEKKEGYSDTVPKGNVMSQKPEAGTSAERGSTVTITISQGPQ	-0.0347
HMSGWIATGTATSTGNDVRVRSTPDATVNNNILLTLNKGNRFEIDGQTQNGFYHIKVNDTIGWISGLYVKE	0.0378
HMSGYFSDKKLNELFEQYLIMREKKGKPVVGYQLKILIDRLNQVAANTKEKIEVVSNAIAGDWNTFYPIKR	0.0685
HMSHDTLVYRLAQMLVKLNQGEKLDPQQLAEEFGVNLRTIQRDLNVRFAYLQLEKTDGRYHLDPTFL	-0.241
HMSHLTKKQEEVLLFIRDYYEEEGRSPSYSDIQHHFGLKSKSSVQDYIGYLKKAGFLQKSVGSRAIELV	≥ 0.43
HMSHQIIIVAVELDPSTERIVYYLSKNGISINVLFFKVFQHGDEQFLSRVWLIDPSETQTNAALA	-0.424
HMSIESMVGRFGVVTKDVVANEMAGKVKVGREEFRATADIAVSSGTKVKVTHAEGITLTVVPE	0.0258
HMSIGKEATPDDIVPNIRVYHATFGYGNVIKTDGVSHDKKAVVNFDSVGEKTLLLKFAKLILPY	-0.754
HMSIGLEGFVGKLGISTSDLRPSGWGEFDAKKLFVVTEGEFVDRKEKIEILSVDGNRILVRKIS	-0.471
HMSILPGVYRHYKGNHYQVFYLAKHSETLEDMVVYQALYGERGIWVRPASMWNETVDDQGKQVKRFTYI	-1.22
HMSILYNAVKGTLVSSGALTADSWYKISSFGTASALPALKVGSIFKTPEGAGDAITLASGDSVYPLTLT	0.021
HMSINQTIEGKKQGYWIIYGNMRNLQEYLSNEVIEEGQFKNSRKEGVWRKYFPGGQMKSEITYINGRP	-0.93
HMSINTIIAKNLNRLRNERNLSLGQLAELSGVSKVMLSQIEKGDSNPTVNTIWKIASGLNVPYTAILDQP	0.22
HMSIPVLKDGTYESWGNEKVYKVGDRVMVGSNGYVAKWWNQDETPEKAIINPNDSPWRPMTESEIMEVLK	-0.113
HMSISEADAKKIALEKVPGATDSNLRIKTDYDDGIMKYEVKIVYNEMKYEFDIDAATGTILEWESESVY	0.277
HMSISSSEAARSAVASSGGTVLGVSKASHGGYKAWAVRIQRADGSVVTGYVDRASGTVYDWVVNQAA	0.379
